Where no end group is shown, it is not given here. The star is where a group is joined. FITC = O=C1OC2(c3ccc(O)cc3Oc3cc(O)ccc32)c2ccc(NC(=S)*)cc21; Ahx = NCCCCCC(=O)O
Columns and labels:
[1] = target: T1, FAT domain of human FAK (892–1052) (human, UniProt Q05397 892-1052); assay: FP
T1 chain: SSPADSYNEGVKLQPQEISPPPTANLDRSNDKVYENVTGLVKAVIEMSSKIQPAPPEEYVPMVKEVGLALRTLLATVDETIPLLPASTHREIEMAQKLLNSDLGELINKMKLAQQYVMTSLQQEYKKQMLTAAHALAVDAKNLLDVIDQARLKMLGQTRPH

[2] = target: T2, Human α-parvin-CHC (residues 242–372) (human, UniProt Q9NVD7 242-372); assay: FP
T2 chain: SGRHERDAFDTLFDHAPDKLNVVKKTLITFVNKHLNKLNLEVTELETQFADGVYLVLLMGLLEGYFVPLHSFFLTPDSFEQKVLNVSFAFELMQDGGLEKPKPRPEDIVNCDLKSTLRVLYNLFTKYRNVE

[3] = target: T1, FAT domain of human FAK (892–1052); assay: ITC
[4] = target: T1, FAT domain of human FAK (892–1052); assay: MST
[5] = target: T2, Human α-parvin-CHC (residues 242–372); assay: MST
[6] = target: T3, FAT domain of human FAK (892–1052) (human, UniProt Q05397 892-1052); assay: fluorescence polarisation + MST + ITC + other: differential scanning fluorimetry; synthesized peptides against recombinant LDBDs in vitro; direct anisotropy with labelled candidate peptides, anisotropy competition of unlabelled peptides against fluorescently labelled known LD motifs, ITC, MST and DSF summed up together; 25°C, 20 mM HEPES pH 7.5, 150 mM NaCl, 2 mM EDTA, 1 mM TCEP, unless stated otherwise; conditions: both partners purified
T3 construct: focal adhesion kinase (FAK), human, FAT domain, residues 892-1052; 15N-labelled for the NMR titrations; Purification and fate of the GST are told only in the Supplementary Material and in the cited work (Arold et al., 2002); also called FAK FAT; four-helix FAT domain from FAK; source: E. coli BL21, expressed as GST-fusion protein
T3 sequence (looked up): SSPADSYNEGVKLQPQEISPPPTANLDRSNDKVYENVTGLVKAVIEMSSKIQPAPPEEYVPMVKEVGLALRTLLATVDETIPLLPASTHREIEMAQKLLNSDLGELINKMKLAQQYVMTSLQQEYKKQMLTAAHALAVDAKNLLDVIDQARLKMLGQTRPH

[7] = target: T4, Human α-parvin-CHC (residues 242–372) (human, UniProt Q9NVD7 242-372); assay: as above; conditions: both partners purified
T4 construct: α-parvin, human, second CH domain (CHC), residues 242-372; Purification and fate of the GST are told only in the Supplementary Material and in the cited work (Lorenz et al., 2008); also called second CH domain of α-parvin; source: E. coli BL21, expressed as GST-fusion protein
T4 sequence (looked up): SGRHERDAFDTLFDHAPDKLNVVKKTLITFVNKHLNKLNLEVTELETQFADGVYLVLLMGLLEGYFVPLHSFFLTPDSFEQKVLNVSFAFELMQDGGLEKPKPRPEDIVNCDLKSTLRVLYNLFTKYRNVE

[8] = target: T5, FAT domain of human FAK (892-1052) (human, UniProt Q05397 892-1052); assay: fluorescence polarisation + MST; the 'quantitative' methods, summed up in one sentence for each peptide: direct anisotropy (protein serially diluted, FITC-Ahx peptide 0.1 μM; 20 mM HEPES pH 7.5, 150 mM NaCl, 2 mM EDTA, 2 mM DTT, 0.005% Tween-20; room temperature) and MST (protein diluted from 560 μM FAT or 530 μM α-parvin, labelled peptide 0.1 μM, 0.05% Tween-20, 25 °C); ITC in selected cases; conditions: both partners purified
T5 construct: focal adhesion kinase (FAK), human, FAT domain, residues 892-1052; 15N-labelled (M9 minimal medium) in the NMR titrations; also called FAK FAT; focal adhesion targeting domain; source: E. coli BL21, expressed as GST-fusion protein (pGexP2), purified as described previously (Arold et al., 2002)
T5 sequence (looked up): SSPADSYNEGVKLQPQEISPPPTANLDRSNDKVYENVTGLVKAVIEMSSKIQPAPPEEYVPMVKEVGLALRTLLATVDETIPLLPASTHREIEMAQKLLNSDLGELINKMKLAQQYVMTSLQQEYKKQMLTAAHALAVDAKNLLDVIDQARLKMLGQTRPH

[9] = target: T6, Human α-parvin-CHC (residues 242-372) (human, UniProt Q9NVD7 242-372); assay: as above; conditions: both partners purified
T6 construct: α-parvin, human, C-terminal CH domain, residues 242-372; also called second CH domain of α-parvin; source: E. coli BL21, expressed as GST-fusion protein (pGex 6P1), purified as described previously (Lorenz et al., 2008)
T6 sequence (looked up): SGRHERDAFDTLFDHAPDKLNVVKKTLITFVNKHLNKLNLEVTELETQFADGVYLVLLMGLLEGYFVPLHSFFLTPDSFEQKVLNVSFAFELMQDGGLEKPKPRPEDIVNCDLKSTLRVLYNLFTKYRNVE

[10] = target: T5, FAT domain of human FAK (892-1052); assay: fluorescence polarisation + other: differential scanning fluorimetry; the 'qualitative' methods, summed up in one sentence for each peptide: anisotropy competition (unlabelled peptide at 100 and 250 μM against 0.1 μM FITC-Ahx-LD4 with 10 μM FAT or 25 μM α-parvin) and DSF (10 μM protein, peptide at 100 and 250 μM; 20 mM HEPES pH 7.5, 150 mM NaCl, 2 mM EDTA, 1 mM TCEP); conditions: both partners purified
[11] = target: T6, Human α-parvin-CHC (residues 242-372); assay: as above; conditions: both partners purified
[12] = target: T5, FAT domain of human FAK (892-1052); assay: fluorescence polarisation + MST; the 'quantitative' methods, summed up in one sentence for each peptide: direct anisotropy (protein serially diluted, FITC-Ahx peptide 0.1 μM; 20 mM HEPES pH 7.5, 150 mM NaCl, 2 mM EDTA, 2 mM DTT, 0.005% Tween-20; room temperature) and MST (protein diluted from 560 μM FAT or 530 μM α-parvin, labelled peptide 0.1 μM, 0.05% Tween-20, 25 °C); ITC in selected cases; conditions: both partners purified; remark: listed apart in the source
[13] = target: T5, FAT domain of human FAK (892-1052); assay: fluorescence polarisation + other: differential scanning fluorimetry; the 'qualitative' methods, summed up in one sentence for each peptide: anisotropy competition (unlabelled peptide at 100 and 250 μM against 0.1 μM FITC-Ahx-LD4 with 10 μM FAT or 25 μM α-parvin) and DSF (10 μM protein, peptide at 100 and 250 μM; 20 mM HEPES pH 7.5, 150 mM NaCl, 2 mM EDTA, 1 mM TCEP); conditions: both partners purified; remark: listed apart in the source
[14] = target: T6, Human α-parvin-CHC (residues 242-372); assay: as above; conditions: both partners purified; remark: listed apart in the source

## SQEEIDKLLMDLESFSQ (also: N-terminal FITC-Ahx only in labelled form) [PPP2R3A LD motif peptide]
[1]
  Kd: 41 µM
[2]
  Kd: 23.3 µM
[3]
  Kd: 19.7 µM
[4]
  Kd: 90 µM

## SDWEVDDLLCSLLSPPA (also: N-terminal FITC-Ahx only in labelled form) [CREB3 LD motif peptide]
[2]
  Kd: 101 µM
[5]
  Kd: 110 µM

## SASSATRELDELMASLSD (also: N-terminal FITC-Ahx only in labelled form) [Paxillin LD4 peptide]
[1]
  Kd: 7.1 µM
[2]
  Kd: 24.5 µM
[3]
  Kd: 19.7 µM
[4]
  Kd: 55.5 µM
[5]
  Kd: 3.1 µM

## AEIDSLTSILADLESS (also: also used as N-terminal FITC-Ahx-labelled form)
[1]
  Kd: 97.4 µM
[5]
  Kd: 169 µM

B1: C16orf71 LD motif peptide (peptide)
peptide: EAWDLDDILQSLQGQ
modifications: also: N-terminal FITC-Ahx only in labelled form
notes: predicted LD motif of human C16orf71; also called CP071; source: synthetic peptide, bought: GenScript
[2]
  Kd: 52 µM
[4]
  Kd: 17.2 µM
[5]
  Kd: 32.3 µM
[6]
  binding result: binds
[7]
  binding result: binds

## DAALDDLIDTLGGP (also: N-terminal FITC-Ahx only in labelled form) [CAST LD motif peptide]
[4]
  Kd: 178 µM
[5]
  Kd: 273 µM

## SELDNLEEILDDLQNSQ (also: N-terminal FITC-Ahx only in labelled form) [NCOA2 (nuclear receptor coactivator 2) LD motif peptide]
[5]
  Kd: 251 µM

## DPTRDLKQLLQELRSVIN (also: N-terminal FITC-Ahx only in labelled form) [CCDC158 (Coiled-coil domain-containing protein 158) LD motif peptide]
[1]
  Kd: 41.6 µM

## GDLDNLDAILGDLTSSD (also: N-terminal FITC-Ahx only in labelled form) [NCOA3 (nuclear receptor coactivator 3) LD motif peptide]
[4]
  Kd: 261 µM

B2: EPB41L5 LD motif peptide, FITC-Ahx-labelled (peptide)
peptide: {FITC-Ahx}-ATDELDALLASLTENLID
notes: Band 4.1-like protein 5, human; core motif 634-643; labelled form, used in direct anisotropy and MST; also called E41L5; source: synthetic peptide, bought: GenScript
[8]
  binding result: binds
[9]
  binding result: binds

B3: RALGAPA1 LD motif peptide, unlabelled (peptide)
peptide: EDVLDELLQYLGVT
notes: core motif 1680-1689; form without label, used in ACA and DSF; also called RGPA1; source: synthetic peptide, bought: GenScript
[10]
  binding result: binds
[11]
  binding result: binds

B4: PPP2R3A LD motif peptide, FITC-Ahx-labelled (peptide)
peptide: {FITC-Ahx}-SQEEIDKLLMDLESFSQ
notes: Serine/threonine-protein phosphatase 2A regulatory subunit B'' subunit alpha, human; core motif 508-517; labelled form, used in direct anisotropy and MST; source: synthetic peptide, bought: GenScript
[8]
  binding result: binds
[9]
  binding result: binds

B5: PPP2R3A LD motif peptide, unlabelled (peptide)
peptide: SQEEIDKLLMDLESFSQ
notes: Serine/threonine-protein phosphatase 2A regulatory subunit B'' subunit alpha, human; core motif 508-517; form without label, used in ACA, DSF and ITC; source: synthetic peptide, bought: GenScript
[10]
  binding result: binds
[11]
  binding result: binds

B6: CCDC158 LD motif peptide, FITC-Ahx-labelled (peptide)
peptide: {FITC-Ahx}-DPTRDLKQLLQELRSVIN
notes: core motif 903-912; labelled form, used in direct anisotropy and MST; also called CD158; source: synthetic peptide, bought: GenScript
[12]
  binding result: binds

B7: CCDC158 LD motif peptide, unlabelled (peptide)
peptide: DPTRDLKQLLQELRSVIN
notes: core motif 903-912; form without label, used in ACA, DSF and NMR; also called CD158; source: synthetic peptide, bought: GenScript
[13]
  binding result: binds
[14]
  binding result: binds

B8: C16orf71 LD motif peptide, unlabelled (peptide)
peptide: EAWDLDDILQSLQGQ
notes: Uncharacterized protein C16orf71, human; core motif 267-276; form without label, used in ACA and DSF; also called CP071; source: synthetic peptide, bought: GenScript
[13]
  binding result: binds
[14]
  binding result: binds

B9: EPB41L5 LD motif peptide, unlabelled (peptide)
peptide: ATDELDALLASLTENLID
notes: Band 4.1-like protein 5, human; core motif 634-643; form without label, used in ACA, DSF and ITC; also called E41L5; Band 4.1-like protein 5 peptide; source: synthetic peptide, bought: GenScript
[10]
  binding result: binds
[11]
  binding result: binds

B10: LPP LD motif peptide, FITC-Ahx-labelled (peptide)
peptide: {FITC-Ahx}-AEIDSLTSILADLESS
notes: Lipoma-preferred partner, human; core motif 123-132; labelled form, used in direct anisotropy and MST; source: synthetic peptide, bought: GenScript
[8]
  binding result: binds
[9]
  binding result: binds

B11: LPP LD motif peptide, unlabelled (peptide)
peptide: AEIDSLTSILADLESS
notes: Lipoma-preferred partner, human; core motif 123-132; form without label, used in ACA, DSF and NMR; also called lipoma-preferred partner peptide; source: synthetic peptide, bought: GenScript
[11]
  binding result: binds

B12: LPP (Lipoma-preferred partner) LD motif peptide (peptide)
peptide: AEIDSLTSILADLESS
modifications: also: N-terminal FITC-Ahx only in labelled form
notes: predicted LD motif of human LPP (Lipoma-preferred partner); source: synthetic peptide, bought: GenScript
[7]
  binding result: binds

Reference: PMC7703752, “Proteome-level assessment of origin, prevalence and function of leucine-aspartic acid (LD) motifs” (Bioinformatics, 2019)
